Experimental data as given in publication PMC4787810 (Nucleic Acids Research, 2015).
Changes are numbered by the printed parent chain. Names and notes keep the numbering of the source. Read-outs that look alike come from different tables or passages of the source.

Key:
[1] = target: T1, HpDnaB replicative helicase;HpDnaG helicase-binding domain (HpDnaGHBD) (Helicobacter pylori;Helicobacter pylori …, UniProt O25916;P56064 1-488;415-559, |); assay: fluorescence anisotropy
T1 sequence 1: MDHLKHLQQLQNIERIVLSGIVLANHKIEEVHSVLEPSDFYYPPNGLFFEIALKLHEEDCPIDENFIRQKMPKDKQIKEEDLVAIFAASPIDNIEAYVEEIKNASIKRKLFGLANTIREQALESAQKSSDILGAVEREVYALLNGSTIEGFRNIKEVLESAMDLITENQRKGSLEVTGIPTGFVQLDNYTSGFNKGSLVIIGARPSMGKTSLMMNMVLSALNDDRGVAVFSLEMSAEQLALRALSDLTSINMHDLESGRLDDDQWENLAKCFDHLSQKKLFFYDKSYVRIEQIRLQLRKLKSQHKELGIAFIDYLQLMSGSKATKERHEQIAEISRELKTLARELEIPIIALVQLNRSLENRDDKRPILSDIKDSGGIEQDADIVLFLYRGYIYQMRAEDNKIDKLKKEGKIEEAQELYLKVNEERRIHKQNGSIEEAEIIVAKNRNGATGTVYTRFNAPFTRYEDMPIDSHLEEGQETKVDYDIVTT
T1 sequence 2: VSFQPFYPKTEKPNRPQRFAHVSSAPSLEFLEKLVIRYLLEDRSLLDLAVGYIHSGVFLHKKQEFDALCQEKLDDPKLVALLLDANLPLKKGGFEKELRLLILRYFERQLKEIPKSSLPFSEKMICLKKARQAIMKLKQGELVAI

[2] = target: T2, HpDnaB replicative helicase (Helicobacter pylori, UniProt O25916 1-488); assay: fluorescence anisotropy
T2 sequence: T1 sequence 1

[3] = target: T1, HpDnaB replicative helicase;HpDnaG …; assay: fluorescence anisotropy; remark: listed apart in the source
[4] = target: T2, HpDnaB replicative helicase; assay: fluorescence anisotropy; remark: listed apart in the source
SEC-MALS = target: the molecule itself; assay: SEC-MALS
cross-linking = target: the molecule itself; assay: cross-linking
[5] = target: T2, HpDnaB replicative helicase; assay: fluorescence anisotropy; remark: listed apart in the source
[6] = target: T2, HpDnaB replicative helicase; assay: fluorescence anisotropy; remark: listed apart in the source

TTTTTTTTTTTTTTTTTTTT (ssDNA) [20dT]
Kd [1]: 1 ± 0.1 nM
Kd [2]: 3.1 ± 0.1 nM
Kd [3]: 8.3 ± 0.6 nM
Kd [4]: 15 ± 1 nM

B1: HpDnaB^Δ9 (N-terminal deletion mutant starting at residue 10) (domain or fragment, Helicobacter pylori, UniProt O25916 10-488, looked up)
chain: LQNIERIVLSGIVLANHKIEEVHSVLEPSDFYYPPNGLFFEIALKLHEEDCPIDENFIRQKMPKDKQIKEEDLVAIFAASPIDNIEAYVEEIKNASIKRKLFGLANTIREQALESAQKSSDILGAVEREVYALLNGSTIEGFRNIKEVLESAMDLITENQRKGSLEVTGIPTGFVQLDNYTSGFNKGSLVIIGARPSMGKTSLMMNMVLSALNDDRGVAVFSLEMSAEQLALRALSDLTSINMHDLESGRLDDDQWENLAKCFDHLSQKKLFFYDKSYVRIEQIRLQLRKLKSQHKELGIAFIDYLQLMSGSKATKERHEQIAEISRELKTLARELEIPIIALVQLNRSLENRDDKRPILSDIKDSGGIEQDADIVLFLYRGYIYQMRAEDNKIDKLKKEGKIEEAQELYLKVNEERRIHKQNGSIEEAEIIVAKNRNGATGTVYTRFNAPFTRYEDMPIDSHLEEGQETKVDYDIVTT
stoichiometry N (SEC-MALS): ~6
stoichiometry N (cross-linking): 6

B2: HpDnaB^L4A (enzyme, Helicobacter pylori, UniProt O25916 1-488, looked up)
chain: T1 sequence 1 with L4A
binding result (SEC-MALS): binds

B3: HpDnaB^E80A (enzyme, Helicobacter pylori, UniProt O25916 1-488, looked up)
chain: T1 sequence 1 with E80A
binding result (SEC-MALS): binds

B4: HpDnaB^Q8A (enzyme, Helicobacter pylori, UniProt O25916 1-488, looked up)
chain: T1 sequence 1 with Q8A
stoichiometry N (cross-linking): 6

TTTTTTTTTTTTTTTTTTTTTTTTTTTTTTTTTTTTTTTTTTTTTTTTTT (ssDNA) [50dT]
Kd [5]: 70 ± 6 nM
Kd [6]: 1.8 ± 0.2 nM
